The values that follow come from patent publication US20240018502A1.

Residue numbers refer to the chain shown, from its start. Names and notes keep the numbering of the source.

B1: Q38H/I41S/D60bT/F60eS/Y60gW/D96V/F97G/ins97aV/T98P/F99L/C122S/G151H/Q175L/Q192D (enzyme)
chain: VVGGTDADEGEWPWQVSLHALGHGHSCGASLISPNWLVSAAHCYIDTRGSRWSDPTQWTAFLGLHDQSQRSAPGVQERRLKRIISHPFFNVGVPLDYDIALLELEKPAEYSSMVRPISLPDASHVFPAGKAIWVTGWGHTQYGGTHALILQKGEIRVINQTTCENLLPQLITPRMMCVGFLSGGVDSCDGDSGGPLSSVEADGRIFQAGVVSWGDGCAQRNKPGVYTRLPLFRDWIKENTGV
B2: Q38H/I41A/D60bV/F60eR/Y60gW/D96F/F97S/ins97aH/T98G/F99L/C122S/G151N/Q175L/Q192G (enzyme)
chain: B1 chain with S26A, T47V, S50R, V91F, G92S, V93H, P94G, H146N, D189G
B3: Q38H/I41A/F60eH/Y60gW/ins97aE/F97T/T98G/F99L/C122S/Q175L/Q192A (enzyme)
chain: B1 chain with S26A, T47D, S50H, V91D, G92T, V93E, P94G, H146G, D189A
B4: Q38H/I41S/D60bT/F60eS/Y60gW/D96F/F97Y/ins97aD/T98G/F99L/C122S/G151H/Q175L/Q192D (enzyme)
chain: B1 chain with V91F, G92Y, V93D, P94G
B5: Q38H/I41A/D60bV/F60eI/Y60gW/F97T/ins97aE/T98G/F99L/C122S/G151N/Q175L/Q192D (enzyme)
chain: B1 chain with S26A, T47V, S50I, V91D, G92T, V93E, P94G, H146N
B6: Q38H/I41S/D60bF/F60eT/ins97aV/F97D/T98P/F99L/C122S/H143Q/G151N/Q175L/Q192G (enzyme)
chain: B1 chain with T47F, S50T, W52Y, V91D, G92D, H139Q, H146N, D189G
B7: I41T/D60bW/F60eH/F97D/ins97aV/T98P/F99L/C122S/G151N/Q175L/Q192G (enzyme)
chain: B1 chain with H23Q, S26T, T47W, S50H, W52Y, V91D, G92D, H146N, D189G
B8: Q38H/I41S/D60bT/F60eS/Y60gW/D96K/F97G/ins97aV/T98P/F99L/C122S/T150S/G151H/Q175L/Q192D/Q209L (enzyme)
chain: B1 chain with V91K, T145S, Q207L
B9: Q38H/I41A/D60bW/ins97aV/F97D/T98P/F99L/C122S/I136M/Q192G/D217N (enzyme)
chain: VVGGTDADEGEWPWQVSLHALGHGHACGASLISPNWLVSAAHCYIDWRGFRYSDPTQWTAFLGLHDQSQRSAPGVQERRLKRIISHPFFNDDVPLDYDIALLELEKPAEYSSMVRPISLPDASHVFPAGKAMWVTGWGHTQYGGTGALILQKGEIRVINQTTCENLLPQQITPRMMCVGFLSGGVDSCGGDSGGPLSSVEADGRIFQAGVVSWGNGCAQRNKPGVYTRLPLFRDWIKENTGV
B10: Q38H/I41S/D60bT/F60eS/Y60gW/D96I/F97N/T98G/F99L/C122S/G151N/Q175L/Q192D (enzyme)
chain: VVGGTDADEGEWPWQVSLHALGHGHSCGASLISPNWLVSAAHCYIDTRGSRWSDPTQWTAFLGLHDQSQRSAPGVQERRLKRIISHPFFNINGLDYDIALLELEKPAEYSSMVRPISLPDASHVFPAGKAIWVTGWGHTQYGGTNALILQKGEIRVINQTTCENLLPQLITPRMMCVGFLSGGVDSCDGDSGGPLSSVEADGRIFQAGVVSWGDGCAQRNKPGVYTRLPLFRDWIKENTGV
B11: Q38Y/I41S/D60bT/Y60gW/D96M/F97N/T98G/F99L/C122S/G151N/Q175L/Q192D (enzyme)
chain: B10 chain with H23Y, S50F, I91M

The target in the assay is human complement protein C3 (human) (UniProt P01024). Briefly: cell-based or functional assay.
Chain of human complement protein C3 (human) (P01024 23-667, chain 1 of 2): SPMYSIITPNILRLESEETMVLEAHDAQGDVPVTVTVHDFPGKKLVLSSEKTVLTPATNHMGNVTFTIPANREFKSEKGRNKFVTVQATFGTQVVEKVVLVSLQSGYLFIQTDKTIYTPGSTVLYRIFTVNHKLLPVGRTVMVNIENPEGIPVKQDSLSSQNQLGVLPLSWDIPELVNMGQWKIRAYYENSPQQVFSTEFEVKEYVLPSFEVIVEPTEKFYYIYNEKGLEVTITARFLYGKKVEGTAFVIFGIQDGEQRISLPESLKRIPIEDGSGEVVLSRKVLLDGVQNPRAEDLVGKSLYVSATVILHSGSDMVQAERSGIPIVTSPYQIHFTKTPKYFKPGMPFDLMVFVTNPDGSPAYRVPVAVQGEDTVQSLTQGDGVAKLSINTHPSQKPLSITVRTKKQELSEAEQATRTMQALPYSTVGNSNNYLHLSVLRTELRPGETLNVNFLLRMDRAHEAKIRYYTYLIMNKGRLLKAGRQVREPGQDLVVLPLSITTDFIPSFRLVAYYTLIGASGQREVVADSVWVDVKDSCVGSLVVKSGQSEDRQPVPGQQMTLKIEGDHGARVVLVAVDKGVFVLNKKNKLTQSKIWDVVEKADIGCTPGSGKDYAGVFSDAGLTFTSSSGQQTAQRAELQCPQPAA
Chain of human complement protein C3 (human) (P01024 672-1663, chain 2 of 2): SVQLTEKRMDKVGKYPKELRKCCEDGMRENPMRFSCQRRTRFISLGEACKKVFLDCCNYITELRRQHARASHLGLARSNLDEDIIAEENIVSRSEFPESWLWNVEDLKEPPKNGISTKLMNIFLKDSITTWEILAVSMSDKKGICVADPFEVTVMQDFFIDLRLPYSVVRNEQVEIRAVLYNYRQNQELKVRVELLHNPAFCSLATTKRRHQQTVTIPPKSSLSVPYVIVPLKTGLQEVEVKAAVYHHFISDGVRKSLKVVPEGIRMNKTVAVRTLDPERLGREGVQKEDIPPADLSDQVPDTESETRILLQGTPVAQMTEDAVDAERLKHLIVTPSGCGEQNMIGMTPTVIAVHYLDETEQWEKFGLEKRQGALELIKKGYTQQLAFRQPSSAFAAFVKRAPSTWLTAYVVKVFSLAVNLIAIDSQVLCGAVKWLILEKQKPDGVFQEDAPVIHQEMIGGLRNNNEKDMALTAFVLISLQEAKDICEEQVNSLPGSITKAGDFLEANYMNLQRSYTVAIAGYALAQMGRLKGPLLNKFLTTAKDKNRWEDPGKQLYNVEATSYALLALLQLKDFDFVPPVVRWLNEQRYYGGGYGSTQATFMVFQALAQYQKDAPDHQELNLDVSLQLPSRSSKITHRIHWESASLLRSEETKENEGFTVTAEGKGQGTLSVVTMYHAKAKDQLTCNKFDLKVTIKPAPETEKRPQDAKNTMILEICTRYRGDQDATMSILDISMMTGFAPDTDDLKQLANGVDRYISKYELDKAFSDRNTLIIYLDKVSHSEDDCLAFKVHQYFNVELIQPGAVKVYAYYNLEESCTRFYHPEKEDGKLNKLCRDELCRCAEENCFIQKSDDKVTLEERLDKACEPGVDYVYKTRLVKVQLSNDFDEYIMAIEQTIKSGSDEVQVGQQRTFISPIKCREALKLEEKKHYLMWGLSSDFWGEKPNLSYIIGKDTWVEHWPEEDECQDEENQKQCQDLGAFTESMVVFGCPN
In turn, B1 registered an EC50 (nM), cleavage of purified hC3 in vitro of 2.85 nM.

Molecule B2 had an EC50 (nM), cleavage of purified hC3 in vitro of 3.14 nM.

In turn, B3 gave an EC50 (nM), cleavage of purified hC3 in vitro of 3.09 nM.

Regarding B4, the EC50 (nM), cleavage of purified hC3 in vitro turned out to be 3.13 nM.

As to B5, the EC50 (nM), cleavage of purified hC3 in vitro amounted to 2.91 nM.

The molecule B6 came in with an EC50 (nM), cleavage of purified hC3 in vitro of 3.07 nM.

Regarding B7, the EC50 (nM), cleavage of purified hC3 in vitro was determined as 3.1 nM.

Molecule B8 gave an EC50 (nM), cleavage of purified hC3 in vitro of 2.88 nM.

B9 displayed an EC50 (nM), cleavage of purified hC3 in vitro of 3.06 nM.

In turn, B10 came in with an EC50 (nM), cleavage of purified hC3 in vitro of 3.04 nM.

In turn, B11 yielded an EC50 (nM), cleavage of purified hC3 in vitro of 3.08 nM.
